Here are results for 21 sequences from the DeepSol protein solubility set.

This data set is described as follows: soluble on expression in E. coli; label from the status in PepcDB or PDB records.
Turning to “SSWIPFKIGQPKKQIVSKTVERDFEREYGKLQQLEEQTKRLQKDMKKSTDADLAMSKSAVKISLDLLSNPLCEQDQDFLRMVTALDTAMKRMDAFNQEKVNQIQKTVIEPLKKFGSIFPSLNMAVKRREQALQDYGRLQAKVEKYEEKEKTGPVLAKLHQAREELRPVREDFEAKNKQLLDEMPRFYNSRLDYFQPSFESLIRAQVIYYSEMHKIFGDLTQQLDQPGHSDEHRERENETKLSELRALSIVADD”, the “soluble on expression in E. coli” value is listed as “soluble”.

“STGKKPKHHVLSHDIIPASKPIAEKLQIQPESPVVELKRILYNDDQPLTFEVTHYPLDLFPGIDTFIADGVSMHDILKQQYKVVPTHNTKLLNVVYAQQEESKYLDCDIGDALFEIDKTAFTSNDQPIYCSLFLMHTNRVTFTINSPYT”: the “soluble on expression in E. coli” value is given as “soluble”.

As to “STGMRPRGAAFAAGPPGDLHLGTAIGFAGAIWRSRSPAMSTLLDIKSSVLRQVQVCPSFRRRTEQDPGSASADPQEPATGAWKPGDGVEFFAHMRLMLKKGEGRQGLPCLEVPLRSGSPAPPEPVDPSLGLRALAPEEVEMLYEEALYTVLYRAGTMGPDQVDDEEALLSYLQQVFGTSLEEHTEAIERVRKAKAPTYALKVSVMRAKNLLAKDPNGFSDPYCMLGILPASDATREPRAQKEQRFGFRKGSKRGGPLPAKCIQVTEVKSSTLNPVWKEHFLFEIEDVSTDQLHLDIWDHDDDVSLVEACRKLNEVIGLKGMGRYFKQIVKSARANGTAGPTEDHTDDFLGCLNIPVREVPVAGVDRWFKLEPRSSASRVQGHCHLVLKLITTQRDTAMSQRGRSGFLSHLLLLSHLLRLEHSAEEPNSSSWRGELSTPAATILCLHGAQSNLSPLQLAVLHWQVSSRHHQTCTLDYSYLLGLLEDMQAHWEEAPSLPQEQEESLADSLSAFSEFGLQLLRQLRDYFPATNSTAVHRLELLLKCLGKLQLFQPSFEICPFESELNMDIAAALKRGNREWYDRILNDKSPREQPGPQRLPGLVVLADAVYDDLQFCYSVYASLFHSILNVDVFTLTFRQLERLVAEEAWVLTEELSPKMTLEVASGLFELYLTLADLQRFWDSIPGRDSRSLALAGIHAPFLPAVKLWFQVLRDQAKWRLQGAVDMDTLEPVDASSRHSSSAATAGLCLSHIQELWVRLAWPDPAQAQGLGTQLGQDVCEATLFYTELLRKKVDTQPGAAGEAVSEALCVVLNNVELVRKAAGQALKGLAWPEGATGPEGVLPRPLLSCTQALDDDLQREAHTVTAHLTSKMVGDIRKYVQHISLSPDSIQNDEAVAPLMKYLDEKLALLNASLVKGNLSRVLEALWELLLQAILQALGANRDVSADFYSRFHFTLEALVSFFHAEGQGLPLESLRDGSYKRLKEELRLHKCSTRECIEQFYLDKLKQRTLEQNRFGRLSVRCHYEAAEQRLAVEVLHAADLLPLDANGLSDPFVIVELGPPHLFPLVRSQRTQVKTRTLHPVYDELFYFSVPAEACRRRAACVLFTVMDHDWLSTNDFAGEAALGLGGVTGVARPQVGGGARAGQPVTLHLCRPRAQVRSALRRLEGRTSKEAQEFVKKLKELEKCMEADP”, the “soluble on expression in E. coli” value is on record as “soluble”.

Regarding “STLKGALSVKFDVKCPADKFFSAFVEDTNRPFEKNGKTEIEAVDLVKKTMTIQMSGSEIQKYFKTLKGSIAVTPIGVGDGSHVVWTFHFEKVHKDIDDPHSIIDESVKYFKKLDEAILNFKE”, the “soluble on expression in E. coli” value is “soluble”.

As for “SYMERMDKRALISFWESVEHLKNANKNEIPQLVGEIYQNFFVESKEISVEKSLYKEIQQCLVGNKGIEVFYKIQEDVYETLKDRYYPSFIVSDLYEKLLIKEEEKHASQMISNKDEMGPRDEAGEEAVDDGTNQINEQASFAVNKLRELNEKLEYKRQALNSIQNAPKPDKKIVSKLKDEIILIEKERTDLQLHMARTDWWCENLGMWKASITSGEVTEENGEQLPCYFVMVSLQEVGGVETKNWTVPRRLSEFQNLHRKLSECVPSLKKVQLPSLSKLPFKSIDQKFMEKSKNQLNKFLQEETEEDSDLSDYGDDVDGRKDALAEPCFMLIGEIFELRGMFKWVRRTLIALVQVTFGRTINKQIRDTVSWIFSEQMLVYYINIFRDAFWPNGKLAPPTTIRSKEQSQETKQRAQQKLLENIPDMLQSLVGQQNARHGIIKIFNALQETRANKHLLYALMELLLIELCPELRVHLDQLKAGQV”, the “soluble on expression in E. coli” value is on record as “soluble”.

Take “TAILVTTRDGTRTEIQAEPGLSLMEALRDAGIDELLALCGGCCSCATCHVLVAPAFADRLPALSGDENDLLDSSDHRTPHSRLSCQITINDKLEGLEVEIAPED”: the “soluble on expression in E. coli” value is recorded as “soluble”.

Turning to “TCPAACHCPLEAPKCAPGVGLVRDGCGCCKVCAKQLNEDCSKTQPCDHTKGLECNFGASSTALKGICRAQSEGRPCEYNSRIYQNGESFQPNCKHQCTCIDGAVGCIPLCPQELSLPNLGCPNPRLVKVTGQCCEEWVCDEDSIKDPMEDQDGLLGKELGFDASEVELTRNNELIAVGKGSSLKRLPVFGMEPRILYNPLQGQKCIVQTTSWSQCSKTCGTGISTRVTNDNPECRLVKETRICEVRPCGQPVYSSLKKGKKCSKTKKSPEPVRFTYAGCLSVKKYRPKYCGSCVDGRCCTPQLTRTVKMRFRCEDGETFSKNVMMIQSCKCNYNCPHANEAAFPFYRLFNDIHKFRD”, the “soluble on expression in E. coli” value is listed as “soluble”.

Turning to “TDESRGKARAAGVESAVLLENKSRLLPLAKEAKIALVGPLATSPDILGGWNVYGEEKDGINVETGLREVFETVEVVSTEYTELSEEDKVAVKAAVQNMDVVVLALGEKNEWGGEAGSLATIRLPEAQYQLAKFVQTLGKPVVITLFNGRPLEVKELAESSDALLELWFPGTEAGRVTADLLSGASNPSGKLSMSFPQTTGQIPVYYNHLRTGRPQTPENKGERYVSHYLDIPNEPFYPFGYGKSYSEF”, the “soluble on expression in E. coli” value was “not soluble”.

In the case of “TDGQLTKQHVRALAISALAPKPHETLWDIGGGSGSIAIEWLRSTPQTTAVCFEISEERRERILSNAINLGVSDRIAVQQGAPRAFDDVPDNPDVIFIGGGLTAPGVFAAAWKRLPVGGRLVANAVTVESEQMLWALRKQFGGTISSFAISHEHTVGSFITMKPALPVHQWTVVKALTKEL”, the “soluble on expression in E. coli” value is listed as “soluble”.

Take “TDNTKPNRMPVAPYWTSPEKMEKKLHAVPAAKTVKFKCPSSGTPQPTLRWLKNGKEFKPDHRIGGYKVRYATWSIIMDSVVPSDKGNYTCIVENEYGSINHTYQLDVVERSPHRPILQAGLPANKTVALGSNVEFMCKVYSDPQPHIQWLKHIEVNGSKIGPDNLPYVQILKTAGVNTTDKEMEVLHLRNVSFEDAGEYTCLAGNSIGLSHHSAWLTVLEALEER”: the “soluble on expression in E. coli” value is “soluble”.

For the sequence “TDPGAEELPARIFVALFDYDPLTMSPNPDAAEEELPFKEGQIIKVYGDKDADGFYRGETCARLGLIPCNMVSEIQADDEEMMDQ”, the “soluble on expression in E. coli” value is “soluble”.

Consider “TESPADSFLKVELELNLKLSNLVFQDPVQYVYNPLVYAWAPHENYVQTYCKSKKEVLFLGMNPGPFGMAQTGVPFGEVNHVRDWLQIEGPVSKPEVEHPKRRIRGFECPQSEVSGARFWSLFKSLCGQPETFFKHCFVHNHCPLIFMNHSGKNLTPTDLPKAQRDTLLEICDEALCQAVRVLGVKLVIGVGRFSEQRARKALMAEGIDVTVKGIMHPSPRNPQANKGWEGIVRGQLLELGVLSLLTG”, for which the “soluble on expression in E. coli” value is given as “soluble”.

With “TIPKWWKEAVFYQVYPRSFKDTNGDGIGDINGIIEKLDYLKALGIDAIWINPHYDSPNTDNGYDIRDYRKIMKEYGTMEDFDRLISEMKKRNMRLMIDVVINHTSDQNEWFVKSKSSKDNPYRGYYFWKDAKEGQAPNNYPSFFGGSAWQKDEKTNQYYLHYFAKQQPDLNWDNPKVRQDLYAMLRFWLDKGVSGLRFDTVATYSKIPDFPNLTQQQLKNFAAEYTKGPNIHRYVNEMNKEVLSHYDIATAGEIFGVPLDQSIKFFDRRRDELNIAFTFDLIRLDRDSDQRWRRKDWKLSQFRQIIDNVDRTAGEYGWNAFFLDNHDNPRAVSHFGDDRPQWREPSAKALATLTLTQRATPFIYQGSELGMTNYPFKAIDEFDDIEVKGFWHDYVETGKVKADEFLQNVRLTSRDNSRTPFQWDGSKNAGFTSGKPWFKVNPNYQEINAVSQVTQPDSVFNYYRQLIKIRHDIPALTYGTYTDLDPANDSVYAYTRSLGAEKYLVVVNFKEQMMRYKLPDNLSIEKVIIDSNSKNVVKKNDSLLELKPWQSGVYKLNQ”, the “soluble on expression in E. coli” value was “soluble”.

Regarding “TLTDTMNDLAVRMAESFQAEEVGFFHIDHFENLTLLPGSTAFFKEAKPSDFYNELKEKLYEGEKGVFIGNGQSVFGKAGYGSLMAAPMIQNDRLLGFAVLLKQELYAFTFEMYKLFQALIHHATLAVTNSMLRDRLEHLVKTDQL”, the “soluble on expression in E. coli” value is on record as “not soluble”.

In the case of “TLTIDDGNIEIVGTGVKGKLPTVWLQYGQVNLKASGGNGKYTWRSANPAIASVDASSGQVTLKEKGTTTISVISSDNQTATYTIATPNSLIVPNMSKRVTYNDAVNTCKNFGGKLPSSQNELENVFKAWGAANKYEYYKSSQTIISWVQQTAQDAKSGVASTYDLVKQNPLNNIKASESNAYATCVK”, the “soluble on expression in E. coli” value is given as “soluble”.

“TNDEETIQQQILALSADKRNFLRDPPAGVQFNFDFDQMYPVALVMLQEDELLSKMRFALVPKLVKEEVFWRNYFYRVSLIKQSAQLT”: the “soluble on expression in E. coli” value is recorded as “soluble”.

Consider “TPDFTWKTSLNFSANKNKIVELHEELKEFVYGPTSFSSSYAMKLVKGGSIGDIYGKAFIRDEAGSIVYGTDGDYKGLPLVEGDGNTVKVGNANPDFMLGWNHSFSYKGFSLYFLLDWRYGGEVLSQTQAEMDLYGVSKATAQARDKGYVSLEGQQISDVKGFYKNVVGGRAGVTEYYMYDATNLRLREISLSYSFPRKWVQKTNCLKDLQLSFVARNLCFLYKKAPFDPDLVLSTGNDNQGIEVFGMPTTRSLGFTLTCEF”, for which the “soluble on expression in E. coli” value is recorded as “not soluble”.

For the sequence “TSSTIFSGVAIYVNGYTDPSAEELRKLMMLHGGQYHVYYSRSKTTHIIATNLPNAKIKELKGEKVIRPEWIVESIKAGRLLSYIPYQLYT”, the “soluble on expression in E. coli” value is given as “soluble”.

Consider “TTSLRAYRLGEHGQVLEQRALSAGIMQLPTTPRLISGQLCSDGFELAFDQACGDWLDAEPGLPVIACGMVGSAQGWREAAYRETPASVNQLSAALQTVRSQRGVTVHIIPGVLQRSTLPNVMRGEETQVLGVLAGLETQLDNQPLLIGLPGSHSKWVQVTRGRIVHFDTFMTGEVYAALCAHTILGRTMQPAEAFDDQAFDRGLSIALSDTGSAGPLSTIFSTRTLGLTGQLAASAQPDYLSGLLFGHELGAIARLHLHTHEQLPAVILIGSEALCARYSRGLTVCGFPQVTLAEQATERGLWQVAVQAGLIAR”, for which the “soluble on expression in E. coli” value is reported as “not soluble”.

Take “TVAEPKAINATQPLLLDAVRGKEVERPPVWLMRQAGRYMKSYQLLCEKYPLFRDRSENVDLVVEISLQPWKVFRPDGVILFSDILTPLSGMNIPFDIIKGKGPVIFDPLRTAADVEKVREFIPEKSVPYVGEALTILRKEVNNQAAVLGFVGAPFTLASYVVEGGSSKNFTKIKRLAFAEPKVLHALLQKFATSMAKYIRYQADSGAQAVQIFDSWATELSPVDFEEFSLPYLKQIVDSVKLTHPNLPLILYASGSGGLLERLPLTGVDVVSLDWTVDMADGRRRLGPNVAIQGNVDPGVLFGSKEFITNRINDTVKKAGKGKHILNLGHGIKVGTPEENFAHFFEIAKGLRY”: the “soluble on expression in E. coli” value is listed as “soluble”.

For “TVKSFVMRAGRMTEGQQRGLDLGWPKFGLELSDEVQDFDAIFGRQAPRTFEIGFGMGHSTLEMAAAAPDIDFIGVEVHKPGVGALLNGLLTQGLGNVRVYSCDALEVLRHCVADASLDRLLLFFPDPWHKKRHHKRRIVQPEFAELVRRKLKVGGVLHMATDWEPYAEHMLDVMSAAPGYRNQAEDGRFVPRPQERPVTKFERRGERLGHGVWDLKFER”, the “soluble on expression in E. coli” value is “not soluble”.
